# Experimental data taken from patent publication US20260115250A1 (CHARACTER BIOSCIENCES, published 2026).
# Where a chain is given by its changes, count along the chain named.
# B1: T-117 (peptide)
# peptide: RSGADALESALKELKRFIREWTLGQSTEELRVRLASHLRKLRKRLLRDADDLQKRLAVYQA
# B2: T-113 (peptide)
# peptide: WKDFGERVERALREQFEDLGQSTEELRVRLASHLRKLRKRLLRDADDLQKRLAVYQA
# B3: T-114 (peptide)
# peptide: B2 peptide with W1L, E9A
# B4: T-112 (peptide)
# peptide: B2 peptide with W1Y, R13G, E14R, F16L, D18M
# B5: T-115 (peptide)
# peptide: DHINKVQRKVTHEIERLFLGQSTEELRVRLASHLRKLRKRLLRDADDLQKRLAVYQA
# B6: T-068 (peptide)
# peptide: MEDVRGRLVQYRGEVQAMLGQSTEELRVRLASHLRKLRKRLLRDADDLQKRLAVYQA
# B7: T-116 (peptide)
# peptide: DAWERFRALFKELADYFRLGQSTEELRVRLASHLRKLRKRLLRDADDLQKRLAVYQA
# B8: T-069 (peptide)
# peptide: VRGRLVQYRGEVQAMLGQSTEELRVRLASHLRKLRKRLLRDADDLQKRLAVYQA
# Biological target: ABCA1, endogenous in J774 murine macrophage cells (murine, UniProt P41233 1-2261)
# Sequence (P41233 whole entry): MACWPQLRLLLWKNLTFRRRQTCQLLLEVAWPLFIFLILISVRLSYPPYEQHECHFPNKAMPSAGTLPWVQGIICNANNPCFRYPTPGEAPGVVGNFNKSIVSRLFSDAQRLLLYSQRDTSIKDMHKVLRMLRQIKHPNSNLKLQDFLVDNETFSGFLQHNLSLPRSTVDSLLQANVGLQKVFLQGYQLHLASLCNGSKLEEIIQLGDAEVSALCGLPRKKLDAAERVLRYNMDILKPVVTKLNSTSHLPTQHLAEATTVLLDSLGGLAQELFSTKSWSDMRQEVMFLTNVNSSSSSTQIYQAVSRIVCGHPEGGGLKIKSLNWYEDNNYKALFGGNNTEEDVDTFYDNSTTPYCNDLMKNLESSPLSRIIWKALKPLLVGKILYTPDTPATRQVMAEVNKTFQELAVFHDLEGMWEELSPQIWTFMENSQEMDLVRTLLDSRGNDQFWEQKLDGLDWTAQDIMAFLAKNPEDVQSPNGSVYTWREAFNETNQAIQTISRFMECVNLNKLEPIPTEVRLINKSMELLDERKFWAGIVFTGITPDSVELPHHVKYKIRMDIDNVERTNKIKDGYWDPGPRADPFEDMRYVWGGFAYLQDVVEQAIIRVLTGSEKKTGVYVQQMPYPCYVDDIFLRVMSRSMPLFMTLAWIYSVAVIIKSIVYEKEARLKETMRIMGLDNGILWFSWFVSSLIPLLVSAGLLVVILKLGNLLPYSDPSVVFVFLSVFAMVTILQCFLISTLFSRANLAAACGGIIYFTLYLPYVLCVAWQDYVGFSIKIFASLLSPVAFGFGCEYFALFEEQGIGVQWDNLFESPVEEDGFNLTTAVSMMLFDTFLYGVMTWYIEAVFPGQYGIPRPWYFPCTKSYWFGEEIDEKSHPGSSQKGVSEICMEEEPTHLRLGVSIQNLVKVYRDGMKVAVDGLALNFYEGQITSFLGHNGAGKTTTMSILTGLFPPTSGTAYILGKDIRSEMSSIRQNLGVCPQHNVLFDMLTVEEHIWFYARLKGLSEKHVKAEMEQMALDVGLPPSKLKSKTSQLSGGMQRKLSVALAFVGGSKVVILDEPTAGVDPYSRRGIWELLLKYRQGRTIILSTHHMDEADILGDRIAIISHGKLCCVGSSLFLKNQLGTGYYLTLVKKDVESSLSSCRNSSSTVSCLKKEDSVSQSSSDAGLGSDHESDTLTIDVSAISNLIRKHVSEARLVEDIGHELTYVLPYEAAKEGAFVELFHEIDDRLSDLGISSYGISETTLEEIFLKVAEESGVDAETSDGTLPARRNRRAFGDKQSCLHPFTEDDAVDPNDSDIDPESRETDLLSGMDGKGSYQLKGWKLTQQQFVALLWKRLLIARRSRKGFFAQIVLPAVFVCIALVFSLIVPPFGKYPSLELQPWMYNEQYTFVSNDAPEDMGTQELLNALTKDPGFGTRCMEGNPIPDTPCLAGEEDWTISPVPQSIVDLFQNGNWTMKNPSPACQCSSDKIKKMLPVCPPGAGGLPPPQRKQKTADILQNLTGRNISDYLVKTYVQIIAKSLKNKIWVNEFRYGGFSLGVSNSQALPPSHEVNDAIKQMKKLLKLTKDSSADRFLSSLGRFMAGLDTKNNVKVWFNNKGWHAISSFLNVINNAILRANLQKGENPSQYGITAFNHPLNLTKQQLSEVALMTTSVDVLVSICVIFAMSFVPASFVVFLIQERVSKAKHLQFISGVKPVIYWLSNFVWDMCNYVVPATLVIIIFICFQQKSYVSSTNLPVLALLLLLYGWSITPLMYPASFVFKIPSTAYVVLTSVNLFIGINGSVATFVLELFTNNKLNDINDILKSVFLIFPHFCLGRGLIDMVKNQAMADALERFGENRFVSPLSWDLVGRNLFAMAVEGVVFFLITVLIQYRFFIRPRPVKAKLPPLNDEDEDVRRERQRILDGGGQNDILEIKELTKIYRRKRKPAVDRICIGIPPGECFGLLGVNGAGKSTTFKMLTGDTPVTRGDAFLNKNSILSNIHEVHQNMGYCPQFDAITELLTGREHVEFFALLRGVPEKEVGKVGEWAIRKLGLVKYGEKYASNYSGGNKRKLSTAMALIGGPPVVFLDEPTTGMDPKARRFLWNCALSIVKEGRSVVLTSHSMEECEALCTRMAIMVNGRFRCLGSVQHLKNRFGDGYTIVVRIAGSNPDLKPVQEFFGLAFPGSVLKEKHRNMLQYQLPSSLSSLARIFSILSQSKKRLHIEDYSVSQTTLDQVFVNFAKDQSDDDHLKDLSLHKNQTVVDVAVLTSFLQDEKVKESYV
# Test: cell-based or functional assay
row,"EC50, membrane ABCA1 stability in J774 cells (western blot of membrane ABCA1 after 8-Br-cAMP washout)",Binder
1,3.7 µM,RSGADALESALKELKRFIREWT [T-101]
2,1.51 µM,DAWERFRALFKELADYFR [T-087]

# Biological target: ATP binding cassette subfamily A member 1 (ABCA1), endogenous in ARPE-19 cells (human, UniProt O95477 1-2261)
# Sequence (O95477 whole entry): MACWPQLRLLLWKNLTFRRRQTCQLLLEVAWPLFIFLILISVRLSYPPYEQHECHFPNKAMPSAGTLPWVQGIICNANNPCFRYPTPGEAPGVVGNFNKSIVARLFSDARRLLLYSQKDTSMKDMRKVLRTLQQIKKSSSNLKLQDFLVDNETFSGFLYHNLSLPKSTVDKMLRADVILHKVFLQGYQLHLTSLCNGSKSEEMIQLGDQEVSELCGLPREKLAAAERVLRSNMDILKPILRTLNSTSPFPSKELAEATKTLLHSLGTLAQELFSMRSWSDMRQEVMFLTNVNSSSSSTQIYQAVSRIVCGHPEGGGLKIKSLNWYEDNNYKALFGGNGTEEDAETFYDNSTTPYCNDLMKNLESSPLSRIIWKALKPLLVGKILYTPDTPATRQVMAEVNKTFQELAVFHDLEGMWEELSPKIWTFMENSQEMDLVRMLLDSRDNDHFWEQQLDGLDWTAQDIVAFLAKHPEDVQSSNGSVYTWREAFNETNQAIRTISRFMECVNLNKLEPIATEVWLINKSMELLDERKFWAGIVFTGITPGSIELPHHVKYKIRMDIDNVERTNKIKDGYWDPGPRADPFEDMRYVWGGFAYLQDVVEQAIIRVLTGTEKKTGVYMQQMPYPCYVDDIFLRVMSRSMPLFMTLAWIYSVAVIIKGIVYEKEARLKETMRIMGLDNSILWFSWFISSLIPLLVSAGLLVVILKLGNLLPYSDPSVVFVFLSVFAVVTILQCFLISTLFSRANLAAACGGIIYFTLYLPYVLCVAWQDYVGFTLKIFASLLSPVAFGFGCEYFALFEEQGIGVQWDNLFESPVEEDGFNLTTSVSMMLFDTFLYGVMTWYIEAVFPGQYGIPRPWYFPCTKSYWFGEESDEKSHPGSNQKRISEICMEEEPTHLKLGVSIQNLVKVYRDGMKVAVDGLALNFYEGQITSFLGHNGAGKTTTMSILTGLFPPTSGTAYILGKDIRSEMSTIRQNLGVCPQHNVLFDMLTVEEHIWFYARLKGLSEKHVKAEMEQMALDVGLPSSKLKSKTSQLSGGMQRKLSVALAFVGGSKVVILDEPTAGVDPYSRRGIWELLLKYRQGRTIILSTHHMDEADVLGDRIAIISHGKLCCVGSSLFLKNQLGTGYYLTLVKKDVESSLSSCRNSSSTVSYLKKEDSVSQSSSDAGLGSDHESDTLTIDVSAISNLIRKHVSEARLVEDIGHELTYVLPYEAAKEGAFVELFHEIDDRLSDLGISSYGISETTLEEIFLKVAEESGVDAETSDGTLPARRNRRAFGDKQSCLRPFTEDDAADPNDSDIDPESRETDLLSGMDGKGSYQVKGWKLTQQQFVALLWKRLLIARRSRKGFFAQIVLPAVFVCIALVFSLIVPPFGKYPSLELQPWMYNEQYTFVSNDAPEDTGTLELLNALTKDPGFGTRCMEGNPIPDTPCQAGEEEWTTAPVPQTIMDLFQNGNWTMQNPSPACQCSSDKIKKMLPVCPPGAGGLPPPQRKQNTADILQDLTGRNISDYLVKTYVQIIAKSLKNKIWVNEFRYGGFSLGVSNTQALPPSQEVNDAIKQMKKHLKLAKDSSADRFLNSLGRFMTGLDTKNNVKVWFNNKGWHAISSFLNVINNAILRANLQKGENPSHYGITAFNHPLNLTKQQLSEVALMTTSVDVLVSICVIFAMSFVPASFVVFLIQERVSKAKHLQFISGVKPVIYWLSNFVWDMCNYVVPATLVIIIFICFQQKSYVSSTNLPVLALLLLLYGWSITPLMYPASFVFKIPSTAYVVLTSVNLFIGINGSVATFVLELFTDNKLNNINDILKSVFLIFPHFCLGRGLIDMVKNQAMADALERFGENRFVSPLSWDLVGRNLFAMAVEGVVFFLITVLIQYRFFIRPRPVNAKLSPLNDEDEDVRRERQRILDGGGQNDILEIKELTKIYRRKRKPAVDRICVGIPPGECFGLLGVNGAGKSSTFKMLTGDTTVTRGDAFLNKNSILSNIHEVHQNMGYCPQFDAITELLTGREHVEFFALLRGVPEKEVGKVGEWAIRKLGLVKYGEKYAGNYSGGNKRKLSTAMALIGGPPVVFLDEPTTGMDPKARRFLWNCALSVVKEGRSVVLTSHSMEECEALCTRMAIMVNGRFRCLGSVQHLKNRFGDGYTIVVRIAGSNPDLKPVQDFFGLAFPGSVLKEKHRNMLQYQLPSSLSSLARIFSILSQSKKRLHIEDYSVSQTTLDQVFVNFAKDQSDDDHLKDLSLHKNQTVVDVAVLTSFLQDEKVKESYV
# Test: cell-based or functional assay
row,"EC50, membrane ABCA1 stability in ARPE-19 cells treated with mCRP (western blot)",Binder
1,3.5 µM,RSGADALESALKELKRFIREWT [T-101]
2,4.6 µM,DAWERFRALFKELADYFR [T-087]

# Biological target: T1, Low Density Lipoprotein Receptor (LDLR), recombinant (UniProt P01130 22-788, limits assumed)
# T1 construct: also called Recombinant LDLR
# Test: SPR multi-cycle kinetics, immobilized LDLR, low-surfactant preparation (HBS-P), peptide:DMPC complex against peptide alone
# Procedure: Recombinant LDLR was diluted in 10 mM acetate buffer pH 4.5 and amine coupled to a CM5 chip at 1000 RU. Peptides were diluted to 5 μM in running buffer (HBS-P, 1 mM CaCl2) and serially diluted 1:3 for 5 total concentrations. In a separate preparation, peptides were diluted to 1 μM in running buffer containing 25 μM DMPC and serially diluted 1:3 for 5 total concentrations in running buffer. Peptide: DMPC complexes were incubated for 1 hour prior to use. […] Between cycles, the chip surface was regenerated with 3 injections of 50 mM NaOH/100 mM EDTA. Multi-Cycle Kinetics was performed on a Biacore Insight Evaluation Software and binding kinetics were analyzed with a 1:1 binding model.
row,change in LDLR binding in the presence of DMPC lipid,Binder
1,> 2 fold,B1
2,> 2 fold,LVQYRGEVQAMLGQSTEELRVRLASHLRKLRKRLLRDADDLQKRLAVYQA [T-070]
3,> 2 fold,B2
4,> 2 fold,B3
5,> 2 fold,B4
6,> 2 fold,LASHLRKLRKRLLRSLVSQYFQTVTDYGKDLM [T-065]
7,> 2 fold,LARHLRKLRKRLARSLVSQYFQTVTDYGKDLM [T-066]
8,> 2 fold,B5
9,> 2 fold,B6
10,> 2 fold,HLRKLRKRLLRSLVSQYRQTVTDYGKDL [T-110]
11,> 2 fold,HLRKLRKRLLRSLVSQYFQTVTDYGKDL [T-109]
12,> 2 fold,HLRKLVKRLLRSLVSQYRQTVTDYGEDL [T-111]
13,> 2 fold,B7

# Biological target: T1, Low Density Lipoprotein Receptor …
# Test: SPR multi-cycle kinetics, immobilized LDLR, high surfactant preparation (HBS-P+), 1:1 model
# Procedure: The table shown in FIG. 23 illustrates LDLR binding data (SPR), using a high surfactant preparation. Recombinant LDLR was diluted in 10 mM acetate buffer pH 4.5 and amine coupled to a CM5 chip at 1000 RU. Peptides were diluted to 5 μM in running buffer (HBS-P+, 1 mM CaCl2) and serially diluted 1:3 for 5 total concentrations. […] Between cycles, the chip surface was regenerated with 3 injections of 50 mM NaOH/100 mM EDTA. Multi-Cycle Kinetics was performed on a Biacore Insight Evaluation Software and binding kinetics were analyzed with a 1:1 binding model.
row,Kd,Binder
1,< 10 µM,B2
2,< 10 µM,B3
3,< 10 µM,B4
4,< 10 µM,LASHLRKLRKRLLRSLVSQYFQTVTDYGKDLM [T-065]
5,< 10 µM,LARHLRKLRKRLARSLVSQYFQTVTDYGKDLM [T-066]
6,< 10 µM,LASHLRKLRKRLLRDGDKLQDRLAEYQARAKEAFDR [T-048]
7,< 10 µM,LARHLRKLRKRLARDGDKLQDRLAEYQARAKEAFDR [T-049]
8,< 10 µM,HLRKLRKRLLRDGDKLQDRLAEYQARAKEAFDR [T-040]
9,< 10 µM,HLRKLRKRLLRDGDKLQKRLAEYQARAKEAFDR [T-052]
10,< 10 µM,HLRKLRKRLLRDGDKLQDRLAEYQARAREAFDR [T-055]
11,< 10 µM,HLRRLRRRLLRDGDKLQDRLAEYQARAKEAFDR [T-041]
12,< 10 µM,HLRKLRKRLLRDGDKLYDRLAEYYARAKEAFDR [T-062]
13,< 10 µM,HLRKLVKRLFRDGDKLQDRLAEYQARAKEAFDR [T-059]
14,< 10 µM,HLRKLRKRLLRDADDLQKRLAEYQARAKEAFDR [T-064]
15,< 10 µM,B5
16,< 10 µM,B8
17,< 10 µM,B6
18,< 10 µM,HLRKLRKRLLRSLVSQYRQTVTDYGKDL [T-110]
19,< 10 µM,HLRKLRKRLLRSLVSQYFQTVTDYGKDL [T-109]
20,< 10 µM,HLRKLVKRLLRSLVSQYRQTVTDYGEDL [T-111]
21,< 10 µM,B7
22,< 10 µM,LASHLRKLRKRLLRDADDLQKRLAVYQAGAREGAER [T-046]
23,< 10 µM,LARHLRKLRKRLARDADDLQKRLAVYQAGAREGAER [T-047]
